# In patent US20140011978A1 (EPFL TTO, published 2014):
# T1: TGF-β3 (Natural form is a disulfide-linked homodimer; one protomer is given.)
# T1 chain: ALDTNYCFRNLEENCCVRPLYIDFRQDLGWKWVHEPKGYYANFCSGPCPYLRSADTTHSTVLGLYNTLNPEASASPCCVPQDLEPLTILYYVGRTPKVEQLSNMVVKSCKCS
# T2: FGF-6 (UniProt P10767 38-208, limits assumed)
# T2 sequence (looked up): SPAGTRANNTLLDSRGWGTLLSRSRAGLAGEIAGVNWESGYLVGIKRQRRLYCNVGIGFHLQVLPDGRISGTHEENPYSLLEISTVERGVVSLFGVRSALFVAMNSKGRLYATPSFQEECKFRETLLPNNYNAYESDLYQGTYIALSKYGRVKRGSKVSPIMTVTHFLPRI
# T3: PlGF-1 (UniProt P49763-2 19-149)
# T3 sequence (looked up): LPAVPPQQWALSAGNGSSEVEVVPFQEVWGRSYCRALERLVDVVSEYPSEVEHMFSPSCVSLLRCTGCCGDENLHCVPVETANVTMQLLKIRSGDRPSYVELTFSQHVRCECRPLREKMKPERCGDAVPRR
# B1: TNC III1-5 (other)
# chain: EVSPPKDLVVTEVTEETVNLAWDNEMRVTEYLVVYTPTHEGGLEMQFRVPGDQTSTIIQELEPGVEYFIRVFAILENKKSIPVSARVATYLPAPEGLKFKSIKETSVEVEWDPLDIAFETWEIIFRNMNKEDEGEITKSLRRPETSYRQTGLAPGQEYEISLHIVKNNTRGPGLKRVTTTRLDAPSQIEVKDVTDTTALITWFKPLAEIDGIELTYGIKDVPGDRTTIDLTEDENQYSIGNLKPDTEYEVSLISRRGDMSSNPAKETFTTGLDAPRNLRRVSQTDNSITLEWRNGKAAIDSYRIKYAPISGGDHAEVDVPKSQQATTKTTLTGLRPGTEYGIGVSAVKEDKESNPATINAATELDTPKDLQVSETAETSLTLLWKTPLAKFDRYRLNYSLPTGQWVGVQLPRNTTSYVLRGLEPGQEYNVLLTAEKGRHKSKPARVKASTEQAGGGSHHHHHH
# notes: The secreted protein in the assays lacks the leader; also called TG-TNC III1-5; engineered TNC III1-5
# Experiments:
# HGF = HGF (UniProt P14210 32-728); assay: ELISA: cytokine coated (50 nM), 100 nM TNC III1-5 in solution, HRP-anti-His, A450; black bars without, white bars with 4 µM heparin
# Method: (§1) ELISA plates were coated with cytokines or BSA and further incubated with TNC III1-5 to analyze binding of TNC III1-5 to a wide variety of cytokines. […] A large amount of heparin (4 μM) impaired binding of TNC III1-5 to these cytokines. Results are depicted in FIG. 3. Method: 50 nM of cytokine was coated for (1 hr, 37° C.). After blocking with 2% BSA (1 hr, RT). 100 nM TNC III1-5 was applied in PBST (0.05% tween, 0.1% bovine serum albumin (BSA)) (1 hr, RT). TNC III1-5 was detected with horseradish peroxidase (HRP)-anti-HIS in PBST (1 hr, RT) and developed with 3,3′,5,5′-tetramethylbenzidine (TMB), a soluble colorimetric HRP […]. Addition of sulfuric acid stop solution changes the color to yellow, enabling accurate measurement of the intensity at 450 nm using a spectrophotometer or plate reader. […] Heparin (4 μM) was added to TNC III1-5 to test the effect of blocking the heparin binding site of TNC III1-5, which has been defined as domain TNC III5 (Weber, Zimmermann, et al., 1995).
# FGF-9 = assay: ELISA: cytokine coated (50 nM), 100 nM TNC III1-5 in solution, HRP-anti-His, A450
# Method: as §1
# BSA [1] = biological target: T4, BSA (bovine, UniProt P02769); assay: ELISA: PDGF-BB or BSA coated, TNC III1-5 in solution at 0 to 1.2 µM, A450
# T4 construct: negative control; also called bovine serum albumin
# Method: as §1, with “100 nM TNC III1-5 was applied in PBST (0.05% tween, 0.1% bovine serum albumin (BSA)) (1 hr, RT).” left out
# TNC III1-5 [2] = biological target: B1; assay: SPR, TNC III1-5 on the chip, cytokine injected, BSA reference channel
# Method: (§2) Surface plasmon resonance (SPR) was done to quantify the affinity of specific cytokines to TNC III1-5. […] Method: Surface plasmon resonance chips were functionalized with TNC III1-5 or BSA and cytokines were injected over the chips at different concentrations. The chips contained gold with free carboxyl groups that were activated to bind TNC III1-5 in one channel and BSA as a reference protein in another channel. The specific response of a cytokine to TNC III1-5 (in RU) was obtained relative to the response to BSA. Results are depicted in FIG. 5.
# BSA [3] = biological target: T4, BSA; assay: ELISA: GST-fused TNC domains, GST and BSA coated, 2 nM PDGF-BB in solution, anti-PDGF-BB antibody and HRP secondary, A450
# Method: An ELISA was performed to test the affinity of different domains present in TNC1-5 to PDGF-BB as an example cytokine that has shown to bind TNC III1-5. Domain TNC III5 was defined to be responsible for cytokine binding. Method: ELISA plates were coated with individual TNC domains fused to GST, as well as GST and BSA. Wells were blocked with BSA and then incubated with 2 nM PDGF-BB. Binding of PDGF-BB was detected using an anti-PDGF-BB antibody and then a secondary horseradish peroxidase conjugated antibody.
# TNC III1-5 [4] = biological target: B1; assay: SPR: TNC III1-5 on the chip, BSA in the reference channel, cytokine injected at rising concentrations; Langmuir fit (legend paragraph 11 says TNC III5, Example 5 paragraph 115 says TNC III1-5)
# Method: as §2
# EGF = assay: ELISA: growth factor coated, Fg fragment in solution, A450 (methods analogous to Example 3)
# Method: as §1
# (§3) ELISA plates were coated with cytokines or BSA and further incubated with Fg β15-66 to analyze binding of […] to a wide variety of cytokines. […] Results are depicted in FIG. 4. Method: The methods were analogous to those used in Example 3.
# TGF-β3 = biological target: T1, TGF-β3; assay: as above
# Method: as §1, §3
# FGF-6 = biological target: T2, FGF-6; assay: as above
# Method: as §1, §3
# PlGF-1 = biological target: T3, PlGF-1; assay: as above
# Method: as §1, §3
# BSA [5] = biological target: T4, BSA; assay: ELISA: BSA coated as control, Fg fragment in solution, A450 (methods analogous to Example 3)
# Method: as §1, §3
# T4 sequence (P02769 25-607 limits assumed): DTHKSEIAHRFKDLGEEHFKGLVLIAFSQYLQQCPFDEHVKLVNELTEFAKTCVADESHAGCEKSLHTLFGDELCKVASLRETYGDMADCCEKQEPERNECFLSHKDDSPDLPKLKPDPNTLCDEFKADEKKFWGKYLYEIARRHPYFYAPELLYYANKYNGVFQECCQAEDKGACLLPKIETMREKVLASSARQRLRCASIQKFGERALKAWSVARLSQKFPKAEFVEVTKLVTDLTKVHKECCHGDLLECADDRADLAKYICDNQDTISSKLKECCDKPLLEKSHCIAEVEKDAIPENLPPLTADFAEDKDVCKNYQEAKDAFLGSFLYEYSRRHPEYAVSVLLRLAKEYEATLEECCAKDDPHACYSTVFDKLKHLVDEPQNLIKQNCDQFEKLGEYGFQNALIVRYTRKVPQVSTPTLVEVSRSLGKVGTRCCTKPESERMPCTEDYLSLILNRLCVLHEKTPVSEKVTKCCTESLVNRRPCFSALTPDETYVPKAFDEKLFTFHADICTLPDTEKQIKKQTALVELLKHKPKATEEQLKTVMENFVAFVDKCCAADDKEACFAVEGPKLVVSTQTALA
# Sequence of HGF (P14210 32-728 limits assumed): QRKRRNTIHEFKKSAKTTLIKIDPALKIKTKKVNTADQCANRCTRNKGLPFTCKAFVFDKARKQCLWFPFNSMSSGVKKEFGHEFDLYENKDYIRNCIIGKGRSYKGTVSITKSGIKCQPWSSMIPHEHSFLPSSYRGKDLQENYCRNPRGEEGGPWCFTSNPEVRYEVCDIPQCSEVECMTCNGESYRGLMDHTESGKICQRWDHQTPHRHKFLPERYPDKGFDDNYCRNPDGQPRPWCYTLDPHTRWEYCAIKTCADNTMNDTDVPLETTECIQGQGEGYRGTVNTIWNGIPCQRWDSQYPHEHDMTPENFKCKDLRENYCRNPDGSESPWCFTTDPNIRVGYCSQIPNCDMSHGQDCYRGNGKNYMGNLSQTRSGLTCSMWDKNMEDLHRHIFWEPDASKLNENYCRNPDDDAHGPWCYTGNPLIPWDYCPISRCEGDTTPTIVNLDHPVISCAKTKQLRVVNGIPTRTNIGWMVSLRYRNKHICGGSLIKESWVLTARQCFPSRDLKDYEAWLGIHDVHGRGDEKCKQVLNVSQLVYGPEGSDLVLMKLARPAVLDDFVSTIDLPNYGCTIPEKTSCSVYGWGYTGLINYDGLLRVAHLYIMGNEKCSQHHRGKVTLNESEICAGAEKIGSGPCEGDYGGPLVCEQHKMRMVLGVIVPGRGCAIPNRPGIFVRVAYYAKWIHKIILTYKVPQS
binder,measurement,setting,value
B1,binding result,HGF,binds
same,binding result,FGF-9,no binding (tested: 100 nM)
same,binding result,BSA [1],no binding (tested: 1.2 µM)
"PDGF-BB (ligand, UniProt P01127 82-190, looked up, The name implies a homodimer of B chains) SLGSLTIAEPAMIAECKTRTEVFEISRRLIDRTNANFLVWPPCVEVQRCSGCCNNRNVQCRPTQVQLRPVQVRKIEIVRKKPIFKKATVTLEDHLACKCETVAAARPVT",Kd,TNC III1-5 [2],0.0039 µM
same,binding result,BSA [3],no binding (tested: 2 nM PDGF-BB)
same,koff,TNC III1-5 [4],0.0202 s⁻¹
same,kon,TNC III1-5 [4],5.23e+06 M⁻¹ s⁻¹
"NT-3 (ligand, UniProt P20783 139-257, looked up) YAEHKSHRGEYSVCDSESLWVTDKSSAIDIRGHQVTVLGEIKTGNSPVKQYFYETRCKEARPVKNGCRGIDDKHWNSQCKTSQTYVRALTSENNKLVGWRWIRIDTSCVCALSRKIGRT",Kd,TNC III1-5 [2],0.021 µM
same,koff,TNC III1-5 [4],0.00106 s⁻¹
same,kon,TNC III1-5 [4],50700 M⁻¹ s⁻¹
"Fg β1-66 (other, production not given) fibrinogen Bβ chain fragment: QGVNDNEEGFFSARGHRPLDKKREEAPSLRPAPPPISGGGYRARPAKAAATQKKVERKAPDAGGCG",binding result,EGF,no binding
same,binding result,TGF-β3,no binding
same,binding result,FGF-6,no binding
same,binding result,PlGF-1,no binding
same,binding result,BSA [5],no binding
